Assay results published in patent US20030176665A1.
Where two headings read alike, the source gives them in different places.

How the values were obtained:
gp41 (535-681)-His6 [1] = system: gp41 (535-681)-His6
gp41 (535-681)-His6 [2] = target: gp41 (535-681)-His6; remark: listed apart in the source

For “C-terminally truncated SlyD from E. coli”, the “aggregation of gp41 after shift to neutral pH (UV spectra)” value (gp41 (535-681)-His6 [1]) was “Comparable data have been obtained with ... a C-terminally truncated SlyD from E. coli”.

B1: FkpA from E. coli (mature FkpA) (protein)
chain: AEAAKPATAADSKAAFKNDDQKSAYALGASLGRYMENSLKEQEKLGIKLDKDQLIAGVQDAFADKSKLSDQEIEQTLQAFEARVKSSAQAKMEKDAADNEAKGKEYREKFAKEKGVKTSSTGLVYQVVEAGKGEAPKDSDTVVVNYKGTLIDGKEFDNSYTRGEPLSFRLDGVIPGWTEGLKNIKKGGKIKLVIPPELAYGKAGVPGIPPNSTLVFDVELLDVKPAPKADAKPEADAKAADSAKK
With B1 the “aggregation of gp41 after shift from about pH 3.5 to pH 7.4 (UV spectra after 1 and 10 minutes; 1 µM gp41 with 2 µM or 4 µM FkpA)” value (gp41 (535-681)-His6 [2]) was “FkpA substantially reduces the aggregation of gp41 in a dose-dependent fashion” and the “suppression of aggregation (stray light in UV spectra) by a two-fold and a four-fold molar excess of the chaperone” value (gp41 (535-681)-His6 [2]) was “there is compelling spectroscopic evidence that FkpA efficiently solubilizes the gp41 ectodomain in a dose-dependent fashion”.

B2: trigger factor from Thermatoga maritima (protein)
chain: MEVKELERDKNRVVLEYVFGAEEIAQAEDKAVRYLNQRVEIPGFRKGRIPKNVLKMKLGEEFQEYTLDFLMDLIPDTLKDRKLILSPIVTERELKDVTARVVVEVHEEPEVRIGDISKIEVEKVDEEKVLEKYVERRIEDLRESHALLEPKEGPAEAGDLVRVNMEVYNEEGKKLTSREYEYVISEDEDRPFVKDLVGKKKGDVVEIEREYEGKKYTYKLEVEEVYKRTLPEIGDELAKSVNNEFETLEQLKESLKKEGKEIYDVEMKESMREQLLEKLPEIVEIEISDRTLEILVNEAINRLKREGRYEQIVSSYESEEKFREELKERILDDIKRDRVIEVLAQEKGISVNDEELEKEAEELAPFWGISPDRAKSLVKARQDLREELRWAILKRKVLDLLLQEVKVKVVEPKGEGDDSEGKEDN
With B2 the “aggregation of gp41 after shift to neutral pH (UV spectra)” value (gp41 (535-681)-His6 [2]) was “Comparable data have been obtained with trigger factor from Thermatoga maritima”.
